Laboratory results published in publication doi:10.1101/2024.12.13.628402 (bioRxiv, 2024).

Target: T1, His6-YidC (E. coli, UniProt P25714 1-548)
T1 sequence (looked up): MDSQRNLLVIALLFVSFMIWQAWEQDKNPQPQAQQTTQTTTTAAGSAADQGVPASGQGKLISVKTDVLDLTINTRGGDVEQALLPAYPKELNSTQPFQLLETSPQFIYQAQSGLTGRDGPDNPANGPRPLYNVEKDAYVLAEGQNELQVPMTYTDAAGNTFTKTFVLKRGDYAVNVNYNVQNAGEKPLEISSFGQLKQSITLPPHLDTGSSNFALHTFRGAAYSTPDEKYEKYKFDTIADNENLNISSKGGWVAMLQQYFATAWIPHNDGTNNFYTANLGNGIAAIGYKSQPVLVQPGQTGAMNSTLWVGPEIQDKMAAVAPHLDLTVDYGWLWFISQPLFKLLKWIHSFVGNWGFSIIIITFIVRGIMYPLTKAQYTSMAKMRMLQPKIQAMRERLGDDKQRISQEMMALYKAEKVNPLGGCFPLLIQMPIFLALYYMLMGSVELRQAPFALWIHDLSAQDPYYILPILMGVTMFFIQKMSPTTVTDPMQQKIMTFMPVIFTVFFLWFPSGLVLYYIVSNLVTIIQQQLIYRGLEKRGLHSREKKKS
Test: native gel or EMSA

B1: YibN-His6 (natural protein, E. coli, UniProt P0AG27 1-143, looked up)
chain: MQEIMQFVGRHPILSIAWIALLVAVLVTTFKSLTSKVKVITRGEATRLINKEDAVVVDLRQRDDFRKGHIAGSINLLPSEIKANNVGELEKHKDKPVIVVDGSGMQCQEPANALTKAGFAQVFVLKEGVAGWAGENLPLVRGK
binding result: binds
